Here are results for 70 substances from the supplement of paper PMC12042874.

± gives the uncertainty stated by the source.

The nature of data set [1]: amyloid nucleation score (Sup35N fusion, yeast selection) (log enrichment); library NNK1; higher = more nucleation; inactive = no reads after selection. In short, it runs like this:
(§1)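 DiMSum was used to calculate nucleation scores as log enrichment of output over input reads, centred on the mode score of non-aggregating sequences. Sequences with fewer than 100 input reads were not scored. Input and output came from Illumina sequencing of plasmid inserts in psi-negative yeast expressing peptides of 20 random codons fused to Sup35N, induced 24 hours with 100 μM copper sulfate and then grown 7 days at 30°C on medium lacking adenine and uracil.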

Data set [2] in a line: amyloid nucleation score (Sup35N fusion, yeast selection) (log enrichment); library NNK2; higher = more nucleation; inactive = no reads after selection. An outline of the steps:
as §1

As to MPLSILQLKTRFFKPSNDSR, in data set [1], the amyloid nucleation score was 5.42 ± 0.11. Same read-out and setting: the same measure for SCQIGLPVLTYRTATVGHKS: 0.06 ± 1; for RIISGRLSSMFVNSIKVIMD: 0.889 ± 0.21; for KFMVNVIV: 1.24 ± 0.22. With TRVSFYRSKFAFMFYYHVMV, the amyloid nucleation score in data set [1] turned out to be 0.099 ± 0.79. On the same count and under the same terms, the same measure for TCAGDNHDCDIYRNLLVAFS: 1.19 ± 0.68; for ATMVMELMVSELGLEEVFDV: -0.216 ± 0.49. VPVVRYYFTQFMDKYADDMF: the amyloid nucleation score in data set [1] came to 1.36 ± 0.58. GFYPHANLTMFRALNKCGEV: the amyloid nucleation score in data set [1] turned out to be 0.501 ± 0.53. Still for that read-out and setting: the same measure for SEGWHGPGARVCLVFKNSRV: 0.286 ± 0.61; for GLLNR: 0.435 ± 0.19. ICHGAEHNV displayed an amyloid nucleation score in data set [1] of -0.735 ± 1.7. The substance NYIVLFSSRDVCTHNMYKTV showed an amyloid nucleation score in data set [1] of 0.342 ± 0.71.

Substance TQRVIGERRMNADCRACRLR yielded an amyloid nucleation score in data set [1] of -0.061 ± 1.6. The substance SILCIF gave an amyloid nucleation score in data set [1] of 0.338 ± 1.2. Regarding EFKWYFAISDKCYVRLKLIK, in data set [1], the amyloid nucleation score was 0.751 ± 0.45. Same read-out and setting: the same measure for RSPRGSVFHMFI: 0.176 ± 1.6. Same read-out and setting: with LSNSSEVPHNSVNINDFVWD the entry was “inactive”. In the case of VEMNFSFVGR, the amyloid nucleation score in data set [1] came out at 2.62 ± 0.23. On the same count and under the same terms, the same measure for DDKITSLLVMSRDKVKPMSD: “inactive”. NKWYVF: in data set [1], the amyloid nucleation score was 0.071 ± 1.1.

Substance ITETSSSETMLLVVRTWEVW gave an amyloid nucleation score in data set [1] of 0.332 ± 0.63.

The substance LFTSVYL displayed an amyloid nucleation score in data set [1] of -0.173 ± 0.53.

CFGFFVWANHAYHAQRCVAS showed an amyloid nucleation score in data set [1] of 1.29 ± 0.33. The same measure, in the same setting: with LEFVYNH the figure was 1.44 ± 0.74; with PSIHTFCTAL, 0.318 ± 0.33. As to LISGKYLYSPTALLDHIL, the amyloid nucleation score in data set [1] stood at 0.484 ± 0.68. Consider CTVLRRFIRYHTITVYMWL, for which, in data set [1], the amyloid nucleation score turned out to be 0.257 ± 0.75.

In data set [1], GIWVGHESVVIIVDMLYMLL registered an amyloid nucleation score of 5.493 ± 0.046. MTRWTGRSLTLMRLQVVLRP displayed an amyloid nucleation score in data set [1] of -0.413 ± 0.62. As for NDRFFGSKYCGVIVLSISDL, the amyloid nucleation score in data set [1] stood at 5.95 ± 0.061. ERGII returned an amyloid nucleation score in data set [1] of 0.621 ± 0.39. As to FQCDVIYA, the amyloid nucleation score in data set [1] is -0.72 ± 0.52. The same measure, in the same setting: the same measure for YCVVFYP: 1.66 ± 0.61; for RIVLILRSNHCQNSY: 0.641 ± 0.3; for FVSIRCVKYASYISHSHGLV: “inactive”. Still for that read-out and setting: the same measure for DLVCDFYVGLV: 2.42 ± 0.085; for GSLFWEVMKVMADGMCDVSL: 0.59 ± 0.54; for CVGSIKVNSLSRLFCHLLCV: -0.187 ± 1.2. On to TRWLILWNLAGPTGCYFRIL, for which, in data set [1], the amyloid nucleation score amounted to 0.063 ± 0.63. The same measure, in the same setting: the same measure for TKSMEPSGR: 0.046 ± 0.52; for RIWPRSMYRPSSGCVET: -0.281 ± 0.52; for AKCGICLFYGM: -0.358 ± 0.36. In turn, RNNEDGRLKDRRRGLSHGPC had an amyloid nucleation score in data set [1] of -0.763 ± 0.36. The same measure, in the same setting: with NYLGS the figure was -0.481 ± 0.33; with ATSDI, -0.076 ± 0.27; with LIRHVLNLVL, -0.139 ± 0.77. On to GIFDLLYWLRELSLRKA, for which, in data set [1], the amyloid nucleation score was 1.14 ± 0.39. Same read-out and setting: the same measure for NLSSYGR: 0.798 ± 0.23. Same read-out and setting: with ACNCHMWV the figure was 1.31 ± 0.59; with LFSPMSILRFLFMYIAKVMD, 0.213 ± 0.58. The same measure, in the same setting: with CVAWNIDW the figure was 0.069 ± 0.76; with ADFVSFSSFYFWWHVVSLDT, 0.238 ± 0.56; with RYFSRAVACDHNES, -0.547 ± 0.84.

As to FYPFLQR, the amyloid nucleation score in data set [1] came to 1.48 ± 0.63. The same measure, in the same setting: with GFYLRYYLGISVRHYNHVIW the figure was 1.19 ± 0.72; with NLGLR, 4.49 ± 0.077. Turning to QTLCCETRWSGENRSDAFRV, the amyloid nucleation score in data set [1] was -0.596 ± 0.79. Still for that read-out and setting: the same measure for SVPSVDAIMVGTWCYRCW: -0.28 ± 0.68; for PSWWVMEFTWIPQNGGLLSL: 6.64 ± 0.082; for TSLYQAYSIYSFRYYIAYMC: 0.232 ± 0.68. On the same count and under the same terms, with SKVIESDSVCYILHRFKNQC the figure was 1.09 ± 0.17; with CYVHEFMDEPSRSNGDGVWC, -0.512 ± 1.2. As for DDSGRL, in data set [1], the amyloid nucleation score worked out at 0.494 ± 0.59. Substance SVIRVLWKGYGTRN yielded an amyloid nucleation score in data set [1] of -1.55 ± 1.4. In turn, GVKAASGSSPKRGFYDWVKH displayed an amyloid nucleation score in data set [2] of 0.307 ± 0.64. In data set [2], ARLKLDRRPMKSSMVCIHSA gave an amyloid nucleation score of 6.16 ± 0.089.

In data set [2], HNCFFITRCSKVLRAYFSTL gave an amyloid nucleation score of -1.4 ± 1.1. The substance GGMPVFISVTVLYEWNDFLF had an amyloid nucleation score in data set [2] of 6.671 ± 0.032.

LLFSG: the amyloid nucleation score in data set [2] was 1.62 ± 0.32.
